Data on 167 variants can be found in the RNAGym collection of RNA variant scans (doi:10.7554/elife.90254).

B1: LINE1-full (parent)
chain: UACGUAGGUGGUUUUCCCCUGAUAGUGCUAAGGGGGCCUGGAAGUUUGGACUGGGCAGAGCUCAACACAGCGUGGCAAAGUGGCUGUGGCUAGACUGCCUCUCUGGAUUCCUCGUCACUCAGCAGGGCAUCUCUGAGAGAAAUGCC

Variants of B1 are the subject of this series. In words: self-cleavage, relative activity (ratio to wild type); higher = more cleavage; in vitro, sequencing; the parent is a self-cleaving ribozyme.
Turning to G41C A59G, the self-cleavage came out at 0.19. To G41U C98U belongs 0.12; to A42G A78G, 1.49. On to A43C C99U, for which the self-cleavage was determined as 0.98. Under U39C U81A stands 1.44; under U39C U81C, 1.45; under U39G A140G, 1.31. To A42G U45A belongs 1.4.

On to A42G U45G, for which the self-cleavage turned out to be 0.1. To U39C G137A belongs 1.09; to G40A A78G, 0.77; to A43G A117C, 1.85. To A42G U81C belongs 1.55; to A42G U81A, 2.11; to G40U A59G, 0.05.

On to G40U A59C, for which the self-cleavage is 0.82. To A43C A138G belongs 1.02; to A42G U115A, 1.24; to A42G G144U, 1.65. Under G40U A79G stands 1.09. Under A42G G72A stands 1.11; under A42G G72U, 1.38; under A43C A94G, 0.66. In the case of U39C G58U, the self-cleavage is 0.03.

With U39C U108A, the self-cleavage stood at 1.22. To A43G A64U belongs 0.4. In the case of A43G A64G, the self-cleavage was found to be 0.32. Under A42C U91C stands 0.4. A43G A94G: the self-cleavage was determined as 0.36.

Regarding A42G C111U, the self-cleavage worked out at 1.37. In the case of A42G U85C, the self-cleavage worked out at 0.38. For A42G U85G, the self-cleavage worked out at 0.26. A42G G125A: the self-cleavage amounted to 1.25. Under A42U U100A stands 0.62. Under A42U U100C stands 1.32. Regarding A43G A136G, the self-cleavage came to 1.5.

A43G A136C: the self-cleavage turned out to be 1.18. Under A43G A136U stands 1.5; under U39C U85A, 0.05; under U39C U85C, 0.18. With G41A U143G, the self-cleavage was found to be 1.11. Under G41A U143C stands 0.95; under U39C G54U, 0.39. For the variant U39C G122A, the self-cleavage is 1.25. U39C G122U: the self-cleavage is 1.53.

Consider U39C G60A, for which the self-cleavage came out at 0.02. With A42G C98U, the self-cleavage was determined as 0.53. Under G40A A141G stands 1.06; under U39G A142G, 0.77. With U39C U119C, the self-cleavage was found to be 1.38. To U39C U119A belongs 1.08; to U39C U119G, 1.36; to A42G A43U, 1.56.

Turning to A42C U73C, the self-cleavage amounted to 0.75. Under G40U A67G stands 0.21; under U39C U102C, 0.99; under A42G U47A, 1.19.

For A42U C103A, the self-cleavage amounted to 0.91. Under A42G C95U stands 0.2; under A42C A107U, 1.04.

For A42G U46C, the self-cleavage worked out at 1.49. To G40U U130C belongs 1.32; to A43C G97A, 0.09.

G41A A78G: the self-cleavage stood at 0.58.

Take G41A A78U: the self-cleavage is 2.63. In the case of G40A U87A, the self-cleavage was 0.06. Turning to A43G A124C, the self-cleavage worked out at 1.96. Take A43G A124G: the self-cleavage amounted to 1.05.

On to A43G A124U, for which the self-cleavage was 1.38. Under G40U U47A stands 1.86. Under A42U A124U stands 1.09; under A42G U62A, 0.06; under A42U G72U, 0.62. Regarding A43G A142C, the self-cleavage was found to be 1.

Take A42G A92U: the self-cleavage is 0.72. On to A42G A92G, for which the self-cleavage turned out to be 0.15. With A42C U100C, the self-cleavage stood at 1.25. To A43G A79G belongs 0.97. To A43G A79U belongs 1.8; to G40A U119A, 0.94; to A42C U119C, 0. Under U39G C123A stands 0.91; under U39G U73A, 1.88. Consider A42G A121C, for which the self-cleavage was 0.84. Consider A42G G127A, for which the self-cleavage came out at 1.04. A42G A65G: the self-cleavage was 0.14. Regarding A42G A65C, the self-cleavage came out at 0.07. In the case of A42C G54A, the self-cleavage was 0.13. For the variant U39C G80A, the self-cleavage worked out at 1.06. Regarding U39C U62A, the self-cleavage turned out to be 0.04. Turning to A42G A79G, the self-cleavage was 1.37.

Turning to A42G A79U, the self-cleavage is 1.57.

Turning to G41A A117G, the self-cleavage is 1.53. As to G40A, the self-cleavage came out at 1.16.

Regarding G40C, the self-cleavage was found to be 1.12. Regarding G40U, the self-cleavage turned out to be 1.

Consider G40A U109C, for which the self-cleavage came out at 0.88. As to A43C A78U, the self-cleavage was 2.11. G40A A136U: the self-cleavage came out at 1.04.

On to U39C U87A, for which the self-cleavage came to 0.06. Under A42G A138G stands 1.34. Turning to A42G A138U, the self-cleavage turned out to be 1.6. For the variant A42G C84A, the self-cleavage is 0.15. To G40A A117U belongs 1.43; to A42G U109G, 0.66; to A42G U109A, 1.43. A42G U109C: the self-cleavage stood at 1.24.

For U39C G106C, the self-cleavage is 0.84. Take U39C G106U: the self-cleavage is 0.4. Under U39C U112A stands 1.45; under G41U U73C, 2.76; under G40A A142G, 0.79. Under G41A U134A stands 0.89; under G41A U134C, 1.15; under G41A U134G, 0.98. To U39G U102C belongs 1.34; to G40U U108C, 1.59. In the case of G41C U100C, the self-cleavage stood at 2.63. In the case of G40A A59U, the self-cleavage was 0.54. For A42U A69C, the self-cleavage worked out at 0.02.

On to A42G C103A, for which the self-cleavage amounted to 1.49. To A42U A57G belongs 0.63.

With A42U A57U, the self-cleavage was determined as 0.04. To U39G U62C belongs 0.1; to A42G A67G, 0.88. Under G41U A129C stands 1.02; under G41U A129G, 1.03. As to A43C A77U, the self-cleavage was determined as 1.39.

Take A42U A79G: the self-cleavage turned out to be 1.16. On to G41U U132A, for which the self-cleavage is 1.35. To A42U G55U belongs 0.1; to G40U U52A, 0.99.

With G40U A65G, the self-cleavage stood at 0.04. Under G40A A107G stands 1.17; under G41C A138G, 0.97; under A42G C120U, 0.67. For the variant A42G C120A, the self-cleavage was 1.54. Under A42U U73G stands 0.95; under A42U U73C, 1.56. To A42G C56U belongs 0.26; to A42U A142G, 0.88; to G40A A65G, 0.04. Under G40A G60U stands 0.02; under U39C U130G, 1.75; under U39C U130C, 2.49. Consider G40A A57G, for which the self-cleavage amounted to 0.4.

Turning to G40U A43G, the self-cleavage is 1.11. Under U39C U104G stands 0.93. To U39C U104A belongs 0.89; to G41U U100G, 0.78; to G40A U81A, 1.71. To A42G G58A belongs 0; to A42U A77G, 1.72. A42U A77U: the self-cleavage was found to be 0.83. Under U39C U46C stands 1.56; under A43G A140U, 1.19. Turning to U39C U52C, the self-cleavage is 0.37.

As to U39C U52A, the self-cleavage was determined as 1.4. As for U39C U91C, the self-cleavage was determined as 0.33. As to A42G G55A, the self-cleavage was found to be 0.29. On to G40A U52C, for which the self-cleavage came out at 1.23. To G40A U52A belongs 1.25; to G41A A79G, 1; to G41A A79U, 1.28. On to A42C A67G, for which the self-cleavage is 0.52. To G40A U85G belongs 0.04.

Consider G41C U104G, for which the self-cleavage is 1.58.
